Data published in patent US20140087995A1 (published 2014).
Numbered stars: 1 amine (or outer) side, 2 acyl side, 3 side chain; on linkers, the order of the positions; unused ones are H or OH. Bridge positions count the residues as written; N and C are the ends. Side chains are listed from the residue outwards. Ends that are not written are not given here. * marks the point of attachment. C20 diacid = O=C(O)CCCCCCCCCCCCCCCCCCC(=O)*; γGlu = O=C(O)[C@H](CCC(=O)[*:2])N[*:1]; C14 diacid = O=C(O)CCCCCCCCCCCCC(=O)*; AEEA = NCCOCCOCC(=O)O

What was measured:
[1] = biological target: T1, human calcitonin receptor (human, UniProt P30988 25-474); experiment: ratio IC50 hCTR / IC50 hAmylin-R (reference: human amylin receptor), SPA competition assays
T1 construct: whole, on cells; Assay used cell membranes, not intact cells; also called hCTR; hCT
T1 sequence (looked up): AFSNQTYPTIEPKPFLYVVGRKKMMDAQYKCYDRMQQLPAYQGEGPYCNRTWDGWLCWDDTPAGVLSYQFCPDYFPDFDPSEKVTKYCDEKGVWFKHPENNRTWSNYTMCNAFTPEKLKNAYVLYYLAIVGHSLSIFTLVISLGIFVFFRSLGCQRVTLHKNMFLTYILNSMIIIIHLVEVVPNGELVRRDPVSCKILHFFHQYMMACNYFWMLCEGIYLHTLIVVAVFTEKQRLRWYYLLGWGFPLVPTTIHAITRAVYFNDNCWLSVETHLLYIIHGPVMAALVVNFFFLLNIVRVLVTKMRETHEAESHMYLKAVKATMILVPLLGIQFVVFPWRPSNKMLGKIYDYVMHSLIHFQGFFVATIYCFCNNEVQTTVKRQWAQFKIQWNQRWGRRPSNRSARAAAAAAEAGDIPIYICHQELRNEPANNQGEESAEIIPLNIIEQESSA
Outline: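 Competition binding by SPA with cell membranes (35 ng/μL) and SPA beads in 50 mM Hepes pH 7.4 with 1 mM CaCl2, 5 mM MgCl2, 0.1% OA and 0.02% Tween20. Incubated 120 min at 25 °C with shaking, then counted.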

[2] = biological target: T1, human calcitonin receptor; experiment: SPA competition with 125I-calcitonin on membranes of BHK cells with human calcitonin receptor (Assay VII)
Outline: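 BHK hCTR membranes 35 ng/μL + SPA beads 0.05 mg/well; buffer 50 mM Hepes pH 7.4, 1 mM CaCl2, 5 mM MgCl₂, 0.1% OA, 0.02% Tween20. 120 min, 25° C., shaking. Scintillation count; IC50 by one-site binding competition.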

[3] = biological target: T2, human amylin receptor (amylin 3(a) receptor: human calcitonin receptor with RAMP-3) (human, UniProt P30988 25-474; O60896 24-148); experiment: SPA competition with 125I-rat amylin on membranes of BHK cells with human calcitonin receptor and RAMP-3 (Assay V)
T2 construct: whole, on cells; Assay used cell membranes of the Amylin 3(a)/CRE-luc BHK cells, not intact cells; also called hAmylin-R; hAmylinR
T2 sequence (looked up) 1: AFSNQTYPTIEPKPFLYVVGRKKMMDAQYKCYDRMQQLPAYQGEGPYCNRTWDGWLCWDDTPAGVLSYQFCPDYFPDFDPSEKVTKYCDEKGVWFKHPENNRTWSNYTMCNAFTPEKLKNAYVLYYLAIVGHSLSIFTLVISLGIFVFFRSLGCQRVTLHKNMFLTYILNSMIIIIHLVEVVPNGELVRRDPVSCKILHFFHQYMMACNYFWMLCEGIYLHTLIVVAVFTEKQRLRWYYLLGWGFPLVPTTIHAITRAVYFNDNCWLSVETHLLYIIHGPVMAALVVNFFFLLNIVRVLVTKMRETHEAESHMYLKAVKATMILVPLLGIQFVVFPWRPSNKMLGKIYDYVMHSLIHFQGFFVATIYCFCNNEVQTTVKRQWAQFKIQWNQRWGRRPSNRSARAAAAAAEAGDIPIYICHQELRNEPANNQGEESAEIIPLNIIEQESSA
T2 sequence (looked up) 2: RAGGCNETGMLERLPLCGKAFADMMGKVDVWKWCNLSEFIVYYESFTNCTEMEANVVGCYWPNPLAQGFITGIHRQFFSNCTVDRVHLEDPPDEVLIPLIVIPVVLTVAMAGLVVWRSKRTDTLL
Outline: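 SPA beads with BHK Amylin 3(a)/CRE-luc cell membranes (35 ng/μL final) in 50 mM Hepes pH 7.4, 1 mM CaCl2, 5 mM MgCl₂, 0.1% OA, 0.02% Tween20.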

B1: N^ε1-[2-[2-[2-[[(4S)-4-carboxy-4-(19-carboxynonadecanoylamino)butanoyl]amino]ethoxy]ethoxy]acetyl]-[Arg17,Pro21,Pro27,His34]-h-amylin (peptide)
peptide: K([AEEA-γGlu-C20 diacid])CNTATCATQRLANFLRHSSPNFGAIPSSTNVGHNTY-NH2
modifications: disulfide 2-7; N-terminus assumed
SMILES: CC[C@H](C)[C@H](NC(=O)[C@H](C)NC(=O)CNC(=O)[C@H](Cc1ccccc1)NC(=O)[C@H](CC(N)=O)NC(=O)[C@@H]1CCCN1C(=O)[C@H](CO)NC(=O)[C@H](CO)NC(=O)[C@H](Cc1c[nH]cn1)NC(=O)[C@H](CCCNC(=N)N)NC(=O)[C@H](CC(C)C)NC(=O)[C@H](Cc1ccccc1)NC(=O)[C@H](CC(N)=O)NC(=O)[C@H](C)NC(=O)[C@H](CC(C)C)NC(=O)[C@H](CCCNC(=N)N)NC(=O)[C@H](CCC(N)=O)NC(=O)[C@@H](NC(=O)[C@H](C)NC(=O)[C@@H]1CSSC[C@H](NC(=O)[C@@H](N)CCCCNC(=O)COCCOCCNC(=O)CC[C@H](NC(=O)CCCCCCCCCCCCCCCCCCC(=O)O)C(=O)O)C(=O)N[C@@H](CC(N)=O)C(=O)N[C@@H]([C@@H](C)O)C(=O)N[C@@H](C)C(=O)N[C@@H]([C@@H](C)O)C(=O)N1)[C@@H](C)O)C(=O)N1CCC[C@H]1C(=O)N[C@@H](CO)C(=O)N[C@@H](CO)C(=O)N[C@H](C(=O)N[C@@H](CC(N)=O)C(=O)N[C@H](C(=O)NCC(=O)N[C@@H](Cc1c[nH]cn1)C(=O)N[C@@H](CC(N)=O)C(=O)N[C@H](C(=O)N[C@@H](Cc1ccc(O)cc1)C(N)=O)[C@@H](C)O)C(C)C)[C@@H](C)O
notes: also called compound 76
For B1, the “Ratio hCT/hAmylin binding” value [1] was 80, the IC50 [2] was 17.2 nM and the IC50 [3] was 0.215 nM.

B2: N^ε1-[2-[2-[2-[[(4S)-4-carboxy-4-(19-carboxynonadecanoylamino)butanoyl]amino]ethoxy]ethoxy]acetyl]-[Thr14,Arg17,Pro21,Pro27,Pro31]-h-amylin (peptide)
peptide: K([AEEA-γGlu-C20 diacid])CNTATCATQRLATFLRHSSPNFGAIPSSTPVGSNTY-NH2
modifications: disulfide 2-7; N-terminus assumed
SMILES: CC[C@H](C)[C@H](NC(=O)[C@H](C)NC(=O)CNC(=O)[C@H](Cc1ccccc1)NC(=O)[C@H](CC(N)=O)NC(=O)[C@@H]1CCCN1C(=O)[C@H](CO)NC(=O)[C@H](CO)NC(=O)[C@H](Cc1c[nH]cn1)NC(=O)[C@H](CCCNC(=N)N)NC(=O)[C@H](CC(C)C)NC(=O)[C@H](Cc1ccccc1)NC(=O)[C@@H](NC(=O)[C@H](C)NC(=O)[C@H](CC(C)C)NC(=O)[C@H](CCCNC(=N)N)NC(=O)[C@H](CCC(N)=O)NC(=O)[C@@H](NC(=O)[C@H](C)NC(=O)[C@@H]1CSSC[C@H](NC(=O)[C@@H](N)CCCCNC(=O)COCCOCCNC(=O)CC[C@H](NC(=O)CCCCCCCCCCCCCCCCCCC(=O)O)C(=O)O)C(=O)N[C@@H](CC(N)=O)C(=O)N[C@@H]([C@@H](C)O)C(=O)N[C@@H](C)C(=O)N[C@@H]([C@@H](C)O)C(=O)N1)[C@@H](C)O)[C@@H](C)O)C(=O)N1CCC[C@H]1C(=O)N[C@@H](CO)C(=O)N[C@@H](CO)C(=O)N[C@H](C(=O)N1CCC[C@H]1C(=O)N[C@H](C(=O)NCC(=O)N[C@@H](CO)C(=O)N[C@@H](CC(N)=O)C(=O)N[C@H](C(=O)N[C@@H](Cc1ccc(O)cc1)C(N)=O)[C@@H](C)O)C(C)C)[C@@H](C)O
notes: also called compound 75
In the case of B2, the “Ratio hCT/hAmylin binding” value [1] is reported as 91.4, the IC50 [2] is reported as 60.9 nM and the IC50 [3] is reported as 0.666 nM.

B3: N^ε1-[(4S)-4-carboxy-4-(13-carboxytridecanoylamino)butanoyl]-[Arg17,Pro21,Pro27,His34]-h-amylin (peptide)
peptide: K([γGlu-C14 diacid])CNTATCATQRLANFLRHSSPNFGAIPSSTNVGHNTY-NH2
modifications: disulfide 2-7; N-terminus assumed
SMILES: CC[C@H](C)[C@H](NC(=O)[C@H](C)NC(=O)CNC(=O)[C@H](Cc1ccccc1)NC(=O)[C@H](CC(N)=O)NC(=O)[C@@H]1CCCN1C(=O)[C@H](CO)NC(=O)[C@H](CO)NC(=O)[C@H](Cc1c[nH]cn1)NC(=O)[C@H](CCCNC(=N)N)NC(=O)[C@H](CC(C)C)NC(=O)[C@H](Cc1ccccc1)NC(=O)[C@H](CC(N)=O)NC(=O)[C@H](C)NC(=O)[C@H](CC(C)C)NC(=O)[C@H](CCCNC(=N)N)NC(=O)[C@H](CCC(N)=O)NC(=O)[C@@H](NC(=O)[C@H](C)NC(=O)[C@@H]1CSSC[C@H](NC(=O)[C@@H](N)CCCCNC(=O)CC[C@H](NC(=O)CCCCCCCCCCCCC(=O)O)C(=O)O)C(=O)N[C@@H](CC(N)=O)C(=O)N[C@@H]([C@@H](C)O)C(=O)N[C@@H](C)C(=O)N[C@@H]([C@@H](C)O)C(=O)N1)[C@@H](C)O)C(=O)N1CCC[C@H]1C(=O)N[C@@H](CO)C(=O)N[C@@H](CO)C(=O)N[C@H](C(=O)N[C@@H](CC(N)=O)C(=O)N[C@H](C(=O)NCC(=O)N[C@@H](Cc1c[nH]cn1)C(=O)N[C@@H](CC(N)=O)C(=O)N[C@H](C(=O)N[C@@H](Cc1ccc(O)cc1)C(N)=O)[C@@H](C)O)C(C)C)[C@@H](C)O
In the case of B3, the “Ratio hCT/hAmylin binding” value [1] is reported as 23.5, the IC50 [2] is reported as 24.3 nM and the IC50 [3] is reported as 1.04 nM.

B4: N^ε1-[2-[2-[2-[[(4S)-4-carboxy-4-(19-carboxynonadecanoylamino)butanoyl]amino]ethoxy]ethoxy]acetyl]-[His14,Arg17,Pro21,Pro27,His34]-h-amylin (peptide)
peptide: K([AEEA-γGlu-C20 diacid])CNTATCATQRLAHFLRHSSPNFGAIPSSTNVGHNTY-NH2
modifications: disulfide 2-7; N-terminus assumed
SMILES: CC[C@H](C)[C@H](NC(=O)[C@H](C)NC(=O)CNC(=O)[C@H](Cc1ccccc1)NC(=O)[C@H](CC(N)=O)NC(=O)[C@@H]1CCCN1C(=O)[C@H](CO)NC(=O)[C@H](CO)NC(=O)[C@H](Cc1c[nH]cn1)NC(=O)[C@H](CCCNC(=N)N)NC(=O)[C@H](CC(C)C)NC(=O)[C@H](Cc1ccccc1)NC(=O)[C@H](Cc1c[nH]cn1)NC(=O)[C@H](C)NC(=O)[C@H](CC(C)C)NC(=O)[C@H](CCCNC(=N)N)NC(=O)[C@H](CCC(N)=O)NC(=O)[C@@H](NC(=O)[C@H](C)NC(=O)[C@@H]1CSSC[C@H](NC(=O)[C@@H](N)CCCCNC(=O)COCCOCCNC(=O)CC[C@H](NC(=O)CCCCCCCCCCCCCCCCCCC(=O)O)C(=O)O)C(=O)N[C@@H](CC(N)=O)C(=O)N[C@@H]([C@@H](C)O)C(=O)N[C@@H](C)C(=O)N[C@@H]([C@@H](C)O)C(=O)N1)[C@@H](C)O)C(=O)N1CCC[C@H]1C(=O)N[C@@H](CO)C(=O)N[C@@H](CO)C(=O)N[C@H](C(=O)N[C@@H](CC(N)=O)C(=O)N[C@H](C(=O)NCC(=O)N[C@@H](Cc1c[nH]cn1)C(=O)N[C@@H](CC(N)=O)C(=O)N[C@H](C(=O)N[C@@H](Cc1ccc(O)cc1)C(N)=O)[C@@H](C)O)C(C)C)[C@@H](C)O
notes: also called compound 80
B4 was tested, and the “Ratio hCT/hAmylin binding” value [1] was 68.1, the IC50 [2] was 19.8 nM and the IC50 [3] was 0.29 nM.

B5: N^ε1-[2-[2-[2-[[(4S)-4-carboxy-4-(19-carboxynonadecanoylamino)butanoyl]amino]ethoxy]ethoxy]acetyl]-[His14,Arg17,Pro21,Pro27,Arg34]-h-amylin (peptide)
peptide: K([AEEA-γGlu-C20 diacid])CNTATCATQRLAHFLRHSSPNFGAIPSSTNVGRNTY-NH2
modifications: disulfide 2-7; N-terminus assumed
SMILES: CC[C@H](C)[C@H](NC(=O)[C@H](C)NC(=O)CNC(=O)[C@H](Cc1ccccc1)NC(=O)[C@H](CC(N)=O)NC(=O)[C@@H]1CCCN1C(=O)[C@H](CO)NC(=O)[C@H](CO)NC(=O)[C@H](Cc1c[nH]cn1)NC(=O)[C@H](CCCNC(=N)N)NC(=O)[C@H](CC(C)C)NC(=O)[C@H](Cc1ccccc1)NC(=O)[C@H](Cc1c[nH]cn1)NC(=O)[C@H](C)NC(=O)[C@H](CC(C)C)NC(=O)[C@H](CCCNC(=N)N)NC(=O)[C@H](CCC(N)=O)NC(=O)[C@@H](NC(=O)[C@H](C)NC(=O)[C@@H]1CSSC[C@H](NC(=O)[C@@H](N)CCCCNC(=O)COCCOCCNC(=O)CC[C@H](NC(=O)CCCCCCCCCCCCCCCCCCC(=O)O)C(=O)O)C(=O)N[C@@H](CC(N)=O)C(=O)N[C@@H]([C@@H](C)O)C(=O)N[C@@H](C)C(=O)N[C@@H]([C@@H](C)O)C(=O)N1)[C@@H](C)O)C(=O)N1CCC[C@H]1C(=O)N[C@@H](CO)C(=O)N[C@@H](CO)C(=O)N[C@H](C(=O)N[C@@H](CC(N)=O)C(=O)N[C@H](C(=O)NCC(=O)N[C@@H](CCCNC(=N)N)C(=O)N[C@@H](CC(N)=O)C(=O)N[C@H](C(=O)N[C@@H](Cc1ccc(O)cc1)C(N)=O)[C@@H](C)O)C(C)C)[C@@H](C)O
notes: also called compound 84
With B5 the “Ratio hCT/hAmylin binding” value [1] was 120, the IC50 [2] was 88.9 nM and the IC50 [3] was 0.743 nM.
